# Experiment: soluble on expression in E. coli; label from the status in PepcDB or PDB records
row,Sequence,soluble on expression in E. coli
1,MAQLQKDAQENECRELIEVPSGHDYQIRQYIEKYPQFLWKYSEGVTIPGYVLNIAEQLNSEYGNVENIPIDLYPCEYYRIVEHSMPTDIGLQPKRFDRIKENLTEKLQQVFRHQDADLYMPENHLIPTVACAVCIQGTWYRGKIENVPPRGIWMYVNLIDAGMSRQVMKSDVRRLPLAFGHYPPMVVKATIRGAVIHRMDRGKVDQFQNMIRNIDYLARCQITTCTEPFQIVLCHPKYEFMNMCSFLLAPRRGQPSQEGVWIPREIAKQLERENGFERNDYDDSGADSDFLEDEEEEDAGWDYGEGDDYAYLRSFPPACKIFRMSEDEFMVERIENERIIYLTSKDMLERRREAEEYLTKEKESLESLPDVWMAYGTSCSVFHQGTMKRASCCGEEGSTIQLLLIDYGISIEVSKSDVYNIPNKDEVNMEPFVTLVSIKSFPFIHYSRVKILQELLPRGTPVKFHRDRKCKEIPTKGEIYQMNGTSVEQSVSEIVSSCQLDLECNSLLPSRIANNELTQLLAYCINYEFMYKSPNVVIYKKSKRVKSHF,not soluble
2,MRKEAIHHRSTDNFAYAYDSETLHLRLQTKKNDVDHVELLFGDPYEWHDGAWQFQTMPMRKTGSDGLFDYWLAEVKPPYRRLRYGFVLRAGGEKLVYTEKGFYHEAPSDDTAYYFCFPFLHRVDLFQAPDWVKDTVWYQIFPERFANGNPAISPKGARPWGSEDPTPTSFFGGDLQGIIDHLDYLADLGITGIYLTPIFRAPSNHKYDTADYFEIDPHFGDKETLKTLVKRCHEKGIRVMLDAVFNHCGYEFAPFQDVLKNGAASRYKDWFHIREFPLQTEPRPNYDTFAFVPHMPKLNTAHPEVKRYLLDVATYWIREFDIDGWRLDVANEIDHQFWREFRQAVKALKPDVYILGLIWHDAMPWLRGDQFDAVMNYPLADAALRFFAKEDMSASEFADRLMHVLHSYPKQVNEAAFNLLGSHDTPRLLTVCGGDVRKVKLLFLFQLTFTGSPCIYYGDEIGMTGGNDPECRKCMVWDPEKQNKELYEHVKQLIALRKQYRALRRGDVAFLTADDEVNHLVYAKTDGNETVMIIINRSNEAAEIPMPIDARGKWLVNLLTGERFAAEAETLCVSLPPYGFVLYAVESW,soluble
3,MRHPIPDYLASLVTELGAVNPGETAQYIPVLAEADPDRFGIALATPTGRLHCAGDADVEFTIQSASKPFTYAAALVDRGFAAVDRQVGLNPSGEAFNELSLEAESHRPDNAMINAGALAVHQLLVGPEASRKERLDRAVEIMSLLAGRRLSVDWETYESEMAVSDRNLSLAHMLRSYGVLQDSAEEIVAGYVAQCAVLVTVKDLAVMGACLATGGIHPMTGERMLPSIVARRVVSVMTSSGMYDAAGQWLADVGIPAKSGVAGGVLGALPGRVGIGVFSPRLDEVGNSARGVLACRRLSEDFRLHLMDGDSLGGTAVRFVEREGDRVFLHLQGVIRFGGAEAVLDALTDLRTGAEKPGTGWDAAVYPRWQEAAADRAALSAATGGGAVHEAAAAAARDENDGPIRTVVLNLARVDRIDDVGRRLIAEGVRRLQADGVRVEVEDPERILPLEEAGAH,soluble
4,VLEQAVYNARVMDIRDIEKESQEQAPEVEMVSELGSDVVVLDIRSAEEEDEKPLELDGVEVTHIPFFKLATKFGDLDQSKEYLLYCERGVMSRLQALLLIENGYKNVKVYRP,not soluble
5,MCLICDRIKMIKINQNKFFVKELKTGYVVLGDNQHFKGYTLFLYKEHENELYQLEPNEKLNFLEEMSLVGEAVSKAFECEKMNYELLGNGDSHLHWHLFPRISGDLGEYGYYGKGPVWWYPREKMYSTDNEPTDEELEKLKQRLNVELDRLFYEKLEHHHHHH,not soluble
6,MTSIQQRDAQSVLAAIDNLLPEIRDRAQATEDLRRLPDETVKALDDVGFFTLLQPQQWGGLQCDPALFFEATRRLASVCGSTGWVSSIVGVHNWHLALFDQRAQEEVWGEDPSTRISSSYAPMGAGVVVDGGYLVNGSWNWSSGCDHASWTFVGGPVIKDGRPVDFGSFLIPRSEYEIKDVWYVVGLRGTGSNTLVVKDVFVPRHRFLSYKAMNDHTAGGLATNSAPVYKMPWGTMHPTTISAPIVGMAYGAYAAHVEHQGKRVRAAFAGEKAKDDPFAKVRIAEAASDIDAAWRQLIGNVSDEYALLAAGKEIPFELRARARRDQVRATGRSIASIDRLFEASGATALSNEAPIQRFWRDAHAGRVHAANDPERAYVIFGNHEFGLPPGDTMV,soluble
7,YQPNYFLSIPITNKKITAGIKVLQNSILRQDNRLTKAMVGDGSFHITLLVMQLLNEDEVNIGTDALLELKPFVEEILEGKHLTLPFHGIGTFQGQVGFVKLADGDHVSALLEIAETAKRTFQEKGILAGESRTFKPHLTFMKLSKAPMLWKKGVRKIEPGLYEQFIDHRFGEEILYQIDLCSMLKKKQSNGYYHCESSIVIGEKD,soluble
8,MKTRINYAKASPEAFKAVMALENYVQSSGLEHRFIHLIKLRASIINGCAFCVDMHVKESRHDGLSEQWINLMSVWRESPVYTEQERALLGWVDAVTKIAETGAPDDAFETLRAHFSDEEIVKITVAIGAINTWNRIAVGFRSQHPVEAAAKAA,soluble
9,AWVDQTPRTATKETGESLTINCVLRDASFELKDTGWYRTKLGSTNEQSISIGGRYVETVNKGSKSFSLRISDLRVEDSGTYKCQAFYSLLLRDYNYSLLFRGEKGAGTALTVKAAA,soluble
10,MEHLSQDEVIRLASTPCSAPALKRAFLFSCLTALRKSDIKKLTWEEIQPYGSDGVMYVTTRMQKTKDIVHNPISEEALELIGYSPDKRGKVFPDFKDSMTQAPLKNWLKDAGITKHISYHCSRHSFACLQLDAGTSIAVVQRYLGHKNVATTEVYAKISDAQKRASVGLEHHHHHH,not soluble
11,MSHLPLLALSPLDGRYLSKVDTLRPIFSEYGLIKSRVKVEIAWLLALAAEPNIVELAPFSVAAQTRLRVLADGLTIEHAARVKEIEHTTNHDVKAVEYFIKEQLKDDIELRRGLEFVHFACTSEDINNLSYSLMLQQARDDVLLPTLDGIATHLRTLAHAQAAQPMLSRTHGQTASPTTLGKEIANVVARLERQRHQIATIALSGKINGAVGNYNAHTISYPEVNWPALAQRFVESLGLVFNPYTTQIEPHDTIAEISDAIRRANTILIDLARDLWGYISLGYFKQKLKEGEIGSSTMPHKVNPIDFENAEGNFGVANALFEHFSTKLPISRWQRDLTDSTVLRALGTAFGHTQVALDSLNKGLHKLSPNPERIDADLDAAWEVLAEAVQTIMRRHNLPNPYEQLKALTRGQGITADSMRAFIETLDLPTEAKQRLHDLTPRAYTGLAKQLALNI,not soluble
12,MAHHHHHHMKVSFTLFFIIYIILNCDVLKCEVESSDSTSFLNLISGQSSSNSDDTVSSSDSRGVVASVSGTVDSDVSRTDSTGNVNSKNSELSETRQNSVEQNNNSNSSDNSIKIKSAFLKENVGVKITGPCDEGFGLVMVPHIIINVDTRNTDIQLGKKSSEINYGIKLRKKGKDEYEEKVGIDLLKNVCETGKNFKFVAYIKGDELIIKWKVIEEGNIPIDIKKFKIKRMSPPITSIQVFSSMSDEKSFVLENKNYVVTNNMPEKCEALATNCFLSGNIDIEKCYQCSLLVENDSKSDVCYNFISRENKEKLNEERFKVKGSTEYEESVESELKGAIDLLISSFYKSDGENGENVLISFEDLNSTLEDDIINFCSLLKLVDLSG,not soluble
13,MKKEHLKFVIDSRCFRGSCVTSMSDGIHCDYYGSTLEELKKQENNPFLVAVTRNAIHKRSRIHDKSLCRPFREITEENYYNCMNELPPVRLKHHSFFFGEPYHGSLYMFCFTIGKRFFRGLRPVMTPQAELERQMNEHYHNITFKGKVTKGKAERITSKDKQEIITIPYSFTDKENRERFICNMVTGGNDGGDTCKARKDMTNILLSLRKHHFLYFSGYGRHDDMETLLDEVEEKRYTIITSGCLFQFPPCRDSVSFTGSVKETGENFFYRIYDRELFLHIMHRLRAVKREKTPAEAKAVLPKCKCYE,not soluble
14,MRMKPYSELTREELLELKKDLSAQYHAFQGKDLKLDMSRGKPSVEQLDLSMGMMDVLNSDCDLTCEDGTDCRNYGVLDGIREAKELLGDMIEVPADNIIIYGNSSLNVMYDTISRSMTHGVMGNTPWCKLDKVKFLCPVPGYDRHFAITEYFGIEMVNVPMTEEGPDMDIVEELVSKDESIKGIWCVPKYSNPTGNSYSDQTVRRFARLKPAAADFRIYWDNAYSVHHLYDDDQDNLIEILAECKRAGNPDLAYKFSSTSKISFPGSGIAAVATSHNNLEDIKKQLRMQTIGHDKVNQLRHVRYFKNIHGMVEHMRKHAEILRPKFEAVEAILERELGGLGIGSWTSPKGGYFISFDSMDGCAKDIVAKCKKAGVVMTGAGATYPYGKDPHDSNIRIAPSYPPLQDLITATELFALCVKIVTVNKLLGATK,not soluble
15,MSFKEIKAEDLQFNPFTRIGSDWMLITAGDEKKFNTMTASWGGAGVFWGKNVVTCYIRPQRYTKEFVDANDTFTLSFYGPECKNALNLCGTVSGRDRDKISEAGLTPYFTEGTAAFEEANLIFVCRKIYQDDMPYENFIAKENDAKYYPNKDYHTMYIAEIVKILVAE,not soluble
16,MSTSVAENKALSASGDVNASDASVPPELLTRHPLQNRWALWYLKADRNKEWEDCLKMVSLFDTVEDFWSLYNHIQSAGGLNWGSDYYLFKEGIKPMWEDVNNVQGGRWLVVVDKQRRTQLLDHYWLELLMAIVGEQFDEYGDYICGAVVNVRQKGDKVSLWTRDATRDDVNLRIGQVLKQKLSIPDTEILRYEVHKDSSARTSSTVKPRICLPAKDPAPVKEKGPAATTSPSNPGTEATGTSPATPTP,not soluble
17,MSLELVIGTKRWSSWSLRPWLALKRAGVDFTELEVALRRGEATGDEIGCISPSRLAPALRDGDLVIWDSLAICEYLAERYPDAKLWPDDPVLRALGRSACAEMHSGFQALRGECPMALDEPPRKLDLSEATQKNVRRIVALWTGLLARSHGPFLLGDWSIADAFYTPVATRFRTYDVRLADYGDAGAAQGYSDRLLQTPEFLEWERAAQAGEGHHHHHH,soluble
18,MTEGKRLQQMELPQMKSIWIDEDQEMEKLYGFQVRQRFMNGPSTDSDEDADEDLGIVLVDSKKLALPNKNNIKLPPLPNYMTINPNINSNHKSLTNKKKNFLGMFKKKDLLSRRHGSAKTAKQSSISTPFDFHHISHANGKREDNPLESHEEKHDVESLVKFTSLAPQPRPDSNVSSKYSNVVMNDSSRIVSSSTIATTMDSHHDGNETNNTPNGNKQLDSPTDLEMTLEDLRNYTFPSVLGDSVSEKTNPSSPSVSSFSGKFKPRELSALHTPELGNCFNVDQSLNSPGNRISVDDVLKFYYQCSETSTPRNT,soluble
19,GLTYDLNGNISTYRNEILELPETVAANGKFGGNGVKSVVGHTYGAQVGYIADGIFKSQDEVDNHATQEGAAVGRIRYRDIDHNGVIDERDQNWIYDPTPSFSYGLNIYLEYKNFDLTMFWQGVQGVDIISDVKKKSDFWSASNVGFLNKGTRLLNAWSPTNPNSDIPALTRSDTNNEQRVSTYFVENGSFLKLRNIQLGYTVPAVISKKMRMDRLRFYCSAQNLLTIKSKNFTGEDPENPNFSYPIPVNITFGLNIGF,not soluble
20,AAAAAAMIVQRVVLNSRPGKNGNPVAENFRMEEVYLPDNINEGQVQVRTLYLSVDPYMRCRMNEDTGTDYITPWQLSQVVDGGGIGIIEESKHTNLTKGDFVTSFYWPWQTKVILDGNSLEKVDPQLVDGHLSYFLGAIGMPGLTSLIGIQEKGHITAGSNKTMVVSGAAGACGSVAGQIGHFLGCSRVVGICGTHEKCILLTSELGFDAAINYKKDNVAEQLRESCPAGVDVYFDNVGGNISDTVISQMNENSHIILCGQISQYNKDVPYPPPLSPAIEAIQKERNITRERFLVLNYKDKFEPGILQLSQWFKEGKLKIKETVINGLENMGAAFQSMMTGGNIGKQIVCISEEISL,soluble

# — the DeepSol protein solubility set
